Results: patent publication US20160032398A1, “METHODS FOR TREATING CANCER” (COMBIMMUNE, INC., priority 2013, published 2016)

Columns and labels:
[1] = tested on: B16 melanoma tumors; experiment: Mouse model of melanoma treated with chemerin: tumor growth, with NK cell depletion (Example 5); type: in vivo, mice (C57BL/6); conditions: FIG. 10
Description: (§1) A mouse model of melanoma was used to study the effect of an immunomodulator, chemerin (RARRES2) (Pachynski et al. J. Exp. Med. 209(8):1427-1435, 2012). Both control and chemerin-over expressing tumors were transplanted into mice. Intratumoral injections of chemerin were also evaluated. For all animal experiments, C57BL/6 or B6.129S7-Rag1tm1Mom/J (RAG1 KO) mice were purchased from the Jackson Laboratory. Murine B16F0 melanoma, L1.2 B lymphoma, and human 293 HEK lines were obtained from the American Type Culture Collection. Cell lines were grown in complete media consisting of RPMI 1640 supplemented with 10% FBS, sodium pyruvate, penicillin/streptomycin, and beta-mercaptoethanol.
(§2) To evaluate the effect of constitutively secreted chemerin on tumor growth, control or chemerin-expressing B16 melanoma tumor cells (0.5×10^6 or 1×10^6) were inoculated subcutaneously into mice. Tumor growth was measured every 2-4 d by calipers, and size was expressed as the product of perpendicular length by width in square millimeters. Mice were euthanized when tumor size reached about 400 mm^2 or when tumor sites ulcerated or at day 17 to evaluate for tumor-infiltrating leukocytes (TILs) by FACS.
(§3) To evaluate the effect of exogenous chemerin on tumor growth, tumor lines were inoculated as indicated. Recombinant, active, carrier-free murine chemerin (R&D Systems) was reconstituted in sterile PBS. […]

[2] = tested on: B16 melanoma tumors; experiment: Mouse model of melanoma treated with chemerin: tumor-infiltrating leukocytes by FACS (Example 5); type: in vivo, mice (C57BL/6)
Description: as §1, §2, §3

[3] = tested on: LMO2; experiment: RT-qPCR of tumors for LMO2 (Example 10); type: in vivo, C57BL6 mice; conditions: after 17 days; chemerin tumors vs control; FIG. 12
Description: (§4) In order to determine the effect of chemerin on the TGS components in a mouse model, B16 melanoma tumors were implanted subcutaneously in C57BL6 mice. One cohort of mice received control tumors that received no treatment. The other cohort received tumors that were engineered to secrete the chemoattractant chemerin locally, thereby mimicking intratumoral injections of the chemoattractant.
(§5) After a period of 17 days, tumors were analyzed by RT-qPCR for LMO2 and CD137 (TNFRSF9), the key components of the TGS. […] Accordingly, a calculated TGS from the tumors would result in improved/lowered TGS score for the chemerin-treated group, whereas the control group that was not treated, and thus had fewer infiltrating NK and T cells, would have a worse/higher TGS score. GAPDH was used as the housekeeping/reference gene (not shown).

[4] = tested on: CD137 (TNFRSF9); experiment: RT-qPCR of tumors for CD137 (Example 10); type: in vivo, C57BL6 mice; conditions: after 17 days; chemerin tumors (n=5) vs control group (n=4); GAPDH reference; FIG. 12
Description: as §4, §5

[5] = tested on: B16 melanoma tumors; experiment: Chemerin-secreting B16 melanoma tumors: tumor size (Example 10); type: in vivo, C57BL6 mice; conditions: chemerin (RARRES2) secreting tumors vs control tumors; p<0.05; FIG. 11
Description: as §4
Clinically, the changes in the number of tumor-infiltrating leukocytes also correlated with tumor growth as well.

[6] = tested on: B16 melanoma tumors; experiment: Chemerin-secreting B16 melanoma tumors: tumor-infiltrating leukocytes (Example 10); type: in vivo, C57BL6 mice; conditions: tumors engineered to secrete chemerin vs control tumors; FIG. 9
Description: as §4

[7] = tested on: B16 melanoma tumors; experiment: Control, EGFR-expressing and chemerin-secreting B16 tumors: tumor-infiltrating leukocytes by FACS (Example 11); type: in vivo, mice; conditions: chemerin-secreting B16 tumors; Day 11; FIG. 13B
Description: (§6) In a separate experiment, three cohorts of mice were inoculated with B16 melanoma tumors. […] Each group comprised three mice. Tumors were allowed to grow until Day 9. […] Forty-eight hours after the single injection (Day 11), the tumors from all three groups were analyzed for infiltrating NK and T cells, as well as CD137 (TNFRSF9) expression.

[8] = tested on: B16 melanoma tumors; experiment: Control, EGFR-expressing and chemerin-secreting B16 tumors: tumor size (Example 11); type: in vivo, mice; conditions: chemerin-secreting B16 tumors; Day 11; vs control tumors treated with cetuximab; FIG. 16
Description: as §6
The same tumors from the three groups were analyzed for tumor size (mm^2), a surrogate for clinical outcomes and survival, at pretreatment ([…]) and post-treatment (Day 11).

[9] = tested on: CD137 (TNFRSF9); experiment: CD137 expression on tumor-infiltrating leukocytes by FACS (Example 11); type: in vivo, mice; conditions: chemerin-secreting B16 tumors; vs control tumors treated with cetuximab; FIG. 14
Description: as §6

[10] = tested on: CD137; experiment: RT-qPCR of tumor biopsies for CD137 (Example 11); type: in vivo, mice
Description: as §6
Tumor biopsies from the three treatment groups were also analyzed by RT-qPCR to measure LMO2 and CD137 expression.
The TGS takes into account the relative expression levels of both CD137 and LMO2. Therefore, the ratio of relative expression of CD137 to LMO2 was determined.

B1: chemerin: chemoattractant polypeptide that attracts cells including NK cells, T cells, macrophages and dendritic cell subsets; given recombinant or secreted by engineered tumors (protein, UniProt Q99969 21-157, looked up)
Retinoic acid receptor …: ELTEAQRRGLQVALEEFHKHPPVQWAFQETSVESAVDTPFPAGIFVRLEFKLQQTSCRKRDWKKPECKVRPNGRKRKCLACIKLGSEDKVLGRLVHCPIETQVLREAEEHQETQCLRVQRAGEDPHSFYFPGQFAFS
- clinical efficacy on tumor growth after depletion of NK cells ([1]; NK cells depleted with anti-Asialo GM1): abrogated the clinical efficacy
- tumor growth ([1]; mice): inhibit tumor growth
- NK and T cells in murine tumors ([2]; FIG. 8): increase in NK and T cells
- infiltrating leukocyte subsets in murine tumors (activated NK and T cells) ([2]; FIG. 9): increased the representation of activated NK and T cells
- LMO2 expression by RT-qPCR [3]: not significantly changed
- CD137 (TNFRSF9) expression by RT-qPCR [4]: significantly increased
- tumor size [5]: significantly smaller than control tumors
- tumor-infiltrating leukocytes (NK and T cells) [6]: increase in tumor-infiltrating leukocytes
- CD8+ T cells and NK cells of CD45+ TIL [7]: small increases in both CD8+ T cells and NK cells
- tumor size [8]: significantly smaller than control tumors
- CD137 expression on total tumor-infiltrating leukocytes (FACS) [9]: increase in CD137 expression
- CD137:LMO2 ratio of relative expression ([10]; chemerin treated tumors vs non-EGFR and cetuximab treated tumors, FIG. 19): greater
- relative CD137 expression (RT-qPCR) ([10]; tumors treated with chemerin, 48 hours time point, FIG. 17B): significantly higher
